Experimental findings from the domain aggregation screens of Martell et al. (2025) are described below.

The series is described as follows: soluble fraction after stress (log2 fold change); higher = more stays soluble; pooled small domains, quantitative proteomics. The note with it: stress: pH 4. The gist of the method: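 Values are on a log2 scale, where higher means more of the domain stayed soluble after pH 4 stress. They are fold changes in the soluble amount of each domain from pooled custom libraries, measured by high-throughput quantitative proteomics. The fold change is taken to reflect aggregation propensity.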
With “HMPALATKDSVLDGRAEVVSYVRDTSVFYLRVRVPQKQGYRSRRIDGVSTLPEAITKALDTYMDLGT”, the “soluble fraction (log2)” value is -1.02.

For “HMPALELLVESKKPLLIHGEKIAEDINLFDREKYFIDDELIRIVKEFPSLKIILEHVSSKYGAD”, the “soluble fraction (log2)” value is -1.59.

In the case of “HMPAMYKAERMNQILSILADQGDVDVGTLARQFGVSLVTIRKDLTYLESSGQLVRTHGGAIAVA”, the “soluble fraction (log2)” value is -0.26. The value for “HMPASVEYIRLAAEQMTGQQVTIIEQPGNYAFILRIHLNDIYSLDLAALRARIDELKPAHLTYTVEQYD” was -1.85; that for “HMPATTMMVVVDRDLPYGHVLTDRDVRLETRRATSPGASVAFTSIDPVLGQSLTRPLGAGTPVGRADLR” was -0.151; that for “HMPAVVEFDVKPRGEVLVDGIWYGRIPELREVELRPGRHHLRVQNAGHPSLDLVVTLEPGERMTVTHTFA” was -0.33. The value for “HMPDAENFRYRVPYTTEQNRLQYYEGDIRAENADKARDQVMQDAQKYFAQNTAFTPNYIDTDIISLD” was -0.615; that for “HMPDFAENAVYGKQREDSLYAHAYKHFQLGDTTTVRAAEHLSAEIYPLGQHRPKFMFLNAVTR” was 0.22. Under “HMPDITAAVARTLQALRADRGWSLDQLAARSGVSKGVLVALEQGRSNPNLATLARIGDAFGVPVTLLVDL” stands -0.196. “HMPDPHSEARNIVLNQLNFMPRSRKELETALAKRNIEADVAKIVLDRFEEIGMVDDAAYAEL”: the “soluble fraction (log2)” value is -1.2. Under “HMPDPLYLINGKIVNKSDFNNIDPRSIQSIEVLKANKALEAFGNDGKNGVIKITLKSSNDQM” stands 0.22; under “HMPEEGPSEDGNSFTAKFKLGSDVQGAMEQADAAAKAGLQDAGKGTGQITSRAQVGGYIYSTATA”, 0.22; under “HMPEIFYRKIHRTDHDQIALDAEMIRLLIAIDEKKSLSQIAAEVQMEPMALKKNLGKLIQLGLVEPIK”, -0.179.

With “HMPELSNNLDRDKVALKNFNESLKDGLTPAEAYANHLTNVSKAAQEAARQSNGLPVDIDKYHNSQLAASMA”, the “soluble fraction (log2)” value was at least 0.43. The value for “HMPEMAIRTLRLRNQRGAAVAAEWSRITASLLELRQVEFVNPVDQLIVLKGPEPWAGVAEELVRQLDV” was -1.02; that for “HMPEQLLNTRIPLEFAGRRFDASLAELFPDYSRSRLAAWIKDGAARLDGETVAPRHTVRGGEQVEILVRM” was -0.13. Under “HMPERLTYVHPDGAEPMRADKALAAFLSGRISRSRLLGSFSAGKVMAGGKPVEKKLLLRAGDALEVELPEP” stands 0.0894; under “HMPERMLEPLLNGNEIMKVTQLQPGPKVGLIRDALLQAQISGDVTDTESAKAFVQDYAKRNI”, 0.386; under “HMPESETIMVDVKGAVQSEGVYELPSTARVNDAIEAAGGFSDQADKKSVNLAQKLSDEAVVYVASQGENV”, -0.28. The value for “HMPEVTMSYSARNQVVSFSKATQYEIVDEFGTVVLRGVGNQATLRYLSRGDYFVNFGAGTEVLKK” was 0.089; that for “HMPEVYSFEVNEGAAGKRLDIFLSGEIEGLTRSFIQKLISEGMATVNQEPPRASYRVKTRDLVELQIPDPE” was -0.309; that for “HMPFDWSAFDWKGWADEALAIIKTANQDQMNKWTEDNEKIIVQAETAAPDIYKTVGDEYDKKMESFN” was 0.0448. In the case of “HMPFESEMKHWIHLFAHELNLKVSDKYTQKIIEIFGNNFSEIFNEMSKSSLVSSNEKDLLNALEKSGNIH”, the “soluble fraction (log2)” value is -0.862. Turning to “HMPFGIYGGKVSSLDDLKDKAAVLVPNDVSNEARALLLLEAQGLIKLKEGVGLEATRNDIVEN”, the “soluble fraction (log2)” value was -0.0596.

As to “HMPFTLDGVNEGSRNDQAARMSGYLISKNLNMDFIKFFMQSWNRQNSPPLSQREINSVVDNVKRTHDRKNK”, the “soluble fraction (log2)” value is -0.697.

Take “HMPGKVSDAGATAKDNRLFLEAVFWRVRTGSPWRDLPPAFGHWNSQFRRFRRWAKAGVFESLFNA”: the “soluble fraction (log2)” value was 0.179. As to “HMPGRKKLAIIYKNDYIGAFNLADSYRDSYEVSMYAFPKKVGKLLNRLELQGFNAYVIYDKDNEENNFNTI”, the “soluble fraction (log2)” value was found to be 0.00545. The value for “HMPGSGELSRRLELAIRDRTAVRVTAAAAGQERSFTLLPVAITSGRLRATDEQAGVQRTLPLSAIVAVEA” was -0.135.

On to “HMPGTEAQDGEVLLDALRRIHPDSSTGTLRRMLTQGRVQVDGTTVHAAKAELTSGQHVEVVAR”, for which the “soluble fraction (log2)” value is -0.0746.

In the case of “HMPIDIEPVLQWIRDNSIDGIGPARSMYHSAAAAAGLPSYSSLQLRKWTWPLLLDAAGVQRR”, the “soluble fraction (log2)” value is -0.265. Under “HMPIRMLQVQKTNTGYLNVRDTPSVSGALIGKVFPGDMLSSTEERDGWFLVAVPQGGTGWVSGDYVKTTS” stands 0.0778; under “HMPKAPHETLSRREMEVLLLLSEGVTLTRIGDTIHVSVKTVSTYRARILQKLDLQSNAELTRYVLQHKL”, at least 0.43; under “HMPKHDWDAFAGAIARRVHDHGMPVSQGELVRDMMDWFAGRKDFPPPDERTVRRKVSAIWRELNG”, -0.292. The value for “HMPKIPRLTLTETAGIMGVSQRALALAIQQGMYSWAQALPGRNKKRPIYFINAITFAKAQGIDLEEYK” was -0.529.
